Laboratory results taken from publication PMC5628889, “Thermal adaptation of mesophilic and thermophilic FtsZ assembly by modulation of the critical concentration” (PLoS ONE, 2017).

Assays:
[1] = target: Methanocaldococcus jannaschii FtsZ-his6 fusion protein (Methanocaldococcus jannaschii) (UniProt Q57816); test: negative-stain transmission electron microscopy; 10 μM MjFtsZ polymerized with 1 mM GTP at 80°C; 50 mM MES-KOH pH 6.5, 5 mM MgCl2, 300 mM KCl; 2% uranyl acetate
[2] = target: Methanocaldococcus jannaschii FtsZ-his6 fusion protein (Methanocaldococcus jannaschii) (UniProt Q57816); test: 90° light scattering; MjFtsZ self-assembly started with 1 mM GTP; 50 mM MES-KOH pH 6.5, 5 mM MgCl2, 300 mM KCl; 60°C; critical concentration from extent of polymerization vs total protein; k_depol from the slope of the disassembly stage (7 μM); monomer addition at polymer ends, apparent
[3] = target: Methanocaldococcus jannaschii FtsZ-his6 fusion protein (Methanocaldococcus jannaschii) (UniProt Q57816); test: 90° light scattering; MjFtsZ self-assembly started with 1 mM GTP; 50 mM MES-KOH pH 6.5, 5 mM MgCl2, 300 mM KCl; 40°C; critical concentration from extent of polymerization vs total protein; k_depol from the slope of the disassembly stage (7 μM); monomer addition at polymer ends, apparent
[4] = target: Methanocaldococcus jannaschii FtsZ-his6 fusion protein (Methanocaldococcus jannaschii) (UniProt Q57816); test: 90° light scattering; MjFtsZ self-assembly started with 1 mM GTP; 50 mM MES-KOH pH 6.5, 5 mM MgCl2, 300 mM KCl; 50°C; critical concentration from extent of polymerization vs total protein; k_depol from the slope of the disassembly stage (7 μM); monomer addition at polymer ends, apparent
[5] = target: Methanocaldococcus jannaschii FtsZ-his6 fusion protein (Methanocaldococcus jannaschii) (UniProt Q57816)
[6] = target: Methanocaldococcus jannaschii FtsZ-his6 fusion protein (Methanocaldococcus jannaschii) (UniProt Q57816); test: 90° light scattering; MjFtsZ self-assembly started with 1 mM GTP; 50 mM MES-KOH pH 6.5, 5 mM MgCl2, 300 mM KCl; 70°C; critical concentration from extent of polymerization vs total protein; k_depol from the slope of the disassembly stage (7 μM); monomer addition at polymer ends, apparent
[7] = target: Methanocaldococcus jannaschii FtsZ-his6 fusion protein (Methanocaldococcus jannaschii) (UniProt Q57816); test: 90° light scattering; MjFtsZ self-assembly started with 1 mM GTP; 50 mM MES-KOH pH 6.5, 5 mM MgCl2, 300 mM KCl; 80°C; critical concentration from extent of polymerization vs total protein; k_depol from the slope of the disassembly stage (7 μM); monomer addition at polymer ends, apparent
[8] = target: Methanocaldococcus jannaschii FtsZ-his6 fusion protein (Methanocaldococcus jannaschii) (UniProt Q57816); test: van't Hoff analysis of critical concentrations (light scattering + GTPase activity); MjFtsZ; global fit of ln(1/CC) vs 1/T (40-80°C) with the integrated van't Hoff equation; parameters extrapolated to the optimal growth temperature; polymer elongation, apparent
[9] = target: the molecule itself; test: negative-stain transmission electron microscopy; 10 μM EcFtsZ polymerized with 1 mM GTP at 30°C; 50 mM MES-KOH pH 6.5, 5 mM MgCl2, 50 mM KCl; 2% uranyl acetate
[10] = target: the molecule itself; test: van't Hoff analysis of critical concentrations (light scattering + GTPase activity); EcFtsZ; global fit of ln(1/CC) vs 1/T (10-30°C) with the integrated van't Hoff equation; parameters extrapolated to the optimal growth temperature; polymer elongation, apparent

Chain of Methanocaldococcus jannaschii FtsZ-his6 fusion protein (Q57816 whole entry, the tested form may be a part): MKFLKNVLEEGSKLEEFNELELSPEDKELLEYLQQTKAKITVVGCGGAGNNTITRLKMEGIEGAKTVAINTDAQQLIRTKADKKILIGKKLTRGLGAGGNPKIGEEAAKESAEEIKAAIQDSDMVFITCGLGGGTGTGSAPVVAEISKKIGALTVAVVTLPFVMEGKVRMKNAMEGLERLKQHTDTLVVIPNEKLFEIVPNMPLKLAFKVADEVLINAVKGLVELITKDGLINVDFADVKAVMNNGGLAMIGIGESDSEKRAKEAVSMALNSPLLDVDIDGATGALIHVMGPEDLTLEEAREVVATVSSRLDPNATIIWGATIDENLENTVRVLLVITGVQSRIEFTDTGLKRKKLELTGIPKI

stoichiometry N [1]	critical concentration for polymerization C (C-Pol) (= 1/Kp) [2]	critical concentration for polymerization C (C-Pol) (= 1/Kp) [3]	critical concentration for polymerization C (C-Pol) (= 1/Kp) [4]	critical concentration for the GTPase activity C (C-GTPase) (malachite green phosphate release, 1 mM GTP), 40°C [5]	critical concentration for the GTPase activity C (C-GTPase) (malachite green phosphate release, 1 mM GTP), 45°C [5]	critical concentration for the GTPase activity C (C-GTPase) (malachite green phosphate release, 1 mM GTP), 50°C [5]	critical concentration for the GTPase activity C (C-GTPase) (malachite green phosphate release, 1 mM GTP), 55°C [5]	critical concentration for the GTPase activity C (C-GTPase) (malachite green phosphate release, 1 mM GTP), 65°C [5]	critical concentration for the GTPase activity C (C-GTPase) (malachite green phosphate release, 1 mM GTP), 70°C [5]	critical concentration for the GTPase activity C (C-GTPase) (malachite green phosphate release, 1 mM GTP), 80°C [5]	critical concentration for polymerization C (C-Pol) (= 1/Kp) [6]	critical concentration for polymerization C (C-Pol) (= 1/Kp) [7]	dH [8]	Molecule	stoichiometry N [9]	dH [10]
> 120 subunits	1.6 µM	3.9 µM	1.8 µM	5.5 µM	4.7 µM	3.3 µM	3.3 µM	2.2 µM	1 µM	1.1 µM	1.6 µM	1.1 µM	5.57 kJmol^−1	Methanocaldococcus jannaschii FtsZ-his6 fusion protein (from UniProt Q57816 1-364) (natural protein)		
														Wild type Escherichia coli FtsZ (natural protein, UniProt P0A9A6 1-383, looked up, Cell division protein FtsZ, Escherichia coli, wild type; assembly was started with 1 mM GTP; also called EcFtsZ; mesophilic EcFtsZ; source: E. coli BL21 (DE3), overexpressed, purified (polymerization-depolymerization cycles)) MFEPMELTNDAVIKVIGVGGGGGNAVEHMVRERIEGVEFFAVNTDAQALRKTAVGQTIQIGSGITKGLGAGANPEVGRNAADEDRDALRAALEGADMVFIAAGMGGGTGTGAAPVVAEVAKDLGILTVAVVTKPFNFEGKKRMAFAEQGITELSKHVDSLITIPNDKLLKVLGRGISLLDAFGAANDVLKGAVQGIAELITRPGLMNVDFADVRTVMSEMGYAMMGSGVASGEDRAEEAAEMAISSPLLEDIDLSGARGVLVNITAGFDLRLDEFETVGNTIRAFASDNATVVIGTSLDPDMNDELRVTVVATGIGMDKRPEITLVTNKQVQQPVMDRYQQHGMAPLTQEQKPVAKVVNDNAPQTAKEPDYLDIPAFLRKQAD	> 120 subunits	-18.4 kJmol^−1
